Results on two substances are retold here after PMC2112417.

Test [1] addresses EGF receptor on Swiss mouse 3T3 cells (mouse (endogenous in Swiss 3T3)) (UniProt Q01279). The test is described as follows: radioligand binding.
For test [2], the target named is PDGF receptor on Swiss mouse 3T3 cells (mouse (endogenous in Swiss 3T3)) (UniProt P05622). The test is described as follows: radioligand binding.
UniProt P05622, sequence (P05622 32-1098): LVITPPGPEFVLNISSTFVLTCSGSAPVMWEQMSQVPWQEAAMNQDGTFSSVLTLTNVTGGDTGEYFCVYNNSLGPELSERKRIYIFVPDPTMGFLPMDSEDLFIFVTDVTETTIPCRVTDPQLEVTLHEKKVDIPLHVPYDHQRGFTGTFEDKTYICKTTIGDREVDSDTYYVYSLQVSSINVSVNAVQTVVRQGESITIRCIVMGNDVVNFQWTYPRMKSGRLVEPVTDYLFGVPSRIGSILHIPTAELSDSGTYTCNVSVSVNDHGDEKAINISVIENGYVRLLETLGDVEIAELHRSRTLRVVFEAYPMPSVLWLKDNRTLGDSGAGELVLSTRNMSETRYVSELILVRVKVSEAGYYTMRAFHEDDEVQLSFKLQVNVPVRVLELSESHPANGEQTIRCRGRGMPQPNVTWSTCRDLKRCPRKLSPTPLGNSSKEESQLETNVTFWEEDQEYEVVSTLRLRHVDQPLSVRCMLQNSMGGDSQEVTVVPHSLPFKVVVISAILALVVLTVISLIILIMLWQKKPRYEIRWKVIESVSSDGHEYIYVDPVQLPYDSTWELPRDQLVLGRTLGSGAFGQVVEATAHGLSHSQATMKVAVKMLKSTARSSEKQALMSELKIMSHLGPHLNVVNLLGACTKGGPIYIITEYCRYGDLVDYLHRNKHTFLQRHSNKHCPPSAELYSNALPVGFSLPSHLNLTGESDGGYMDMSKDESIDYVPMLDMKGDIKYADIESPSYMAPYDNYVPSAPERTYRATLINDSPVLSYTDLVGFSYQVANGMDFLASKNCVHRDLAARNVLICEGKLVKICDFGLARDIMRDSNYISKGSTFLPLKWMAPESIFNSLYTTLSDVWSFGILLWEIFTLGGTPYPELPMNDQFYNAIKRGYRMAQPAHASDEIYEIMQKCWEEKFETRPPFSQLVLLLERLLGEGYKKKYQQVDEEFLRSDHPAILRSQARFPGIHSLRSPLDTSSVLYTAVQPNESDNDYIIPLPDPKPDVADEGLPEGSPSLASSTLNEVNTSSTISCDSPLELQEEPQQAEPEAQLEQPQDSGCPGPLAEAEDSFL

The term EC50 denotes the concentration at which the effect is half-maximal. In test [1], 125I-epidermal growth factor (ligand) registered a % of prebound ligand removed by 3 min 0.1% acetic acid of 78%; an EC50 of 1.3 nM; a binding to acid-treated cultures, % of binding to untreated cultures of 101%; a decrease in 125I-EGF binding after preincubation with 2 ng/ml PDGF of 60%. In test [1], this substance displayed a half-maximal binding after preincubation with 0.5 ng/ml PDGF of 1.6 nM and a half-maximal binding after preincubation with 10 ng/ml PDGF of 2 nM.

“125I-platelet-derived growth factor (from UniProt P04085 87-211; P01127 82-190) (ligand)”: in test [2], the binding to acid-treated cultures, % of binding to untreated cultures amounted to 103%.
